We go through 17 molecules from US20140356358A1 (Amgen, published 2014).

Assay [1] concerns the target T1, human neonatal Fc receptor (hFcRn) (human, UniProt P55899 24-290; P61769 21-119).
T1 construct: Biotinylated in the ELISA, Octet and yeast assays; also called human FcRn; huFcRn
Description: phage ELISA pH 6. How it is done: (§1) Approximately 100 μL of biotinylated human FcRn at 2 μg/mL was added to the wells of MAXISORP™ plates coated with 10 μg/mL streptavidin. After washing with PBS plus 0.05% Tween 20 (PBST) five times, phage from the overnight cultures in MES buffer at pH 6.0 or pH 7.4 were added to the plates and incubated at room temperature for 1 hr. A horseradish peroxidase (HRP)-conjugated anti-M13 antibody was used to detect the binding phage, and the plates were scored by a microtiter plate reader using a wavelength in the visible range.
(§2) Binding was assessed by a quantitative enzyme-linked immunoadsorbent assay (ELISA). The ELISA scores reflect binding affinity, with higher scores meaning higher affinity. Typically, scores higher than about 3˜5 indicate binding above background. For library L5, the insertions are between the N169 and G170 according to the numbering in FIG. 2. For libraries 6A and 6B, the insertions are between L143 and T144 according to the numbering in FIG. 2.
(In general: An ELISA detects its analyte on a solid surface through an enzyme-linked reagent.)

The target in assay [2] is T1, human neonatal Fc receptor (hFcRn). Kind of assay: phage ELISA pH 7.4. How it is done:
as §1, §2
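Note: higher score means stronger binding and above about 3 to 5 exceeds background.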

T1 sequence (P55899 24-290 limits assumed, chain 1 of 2): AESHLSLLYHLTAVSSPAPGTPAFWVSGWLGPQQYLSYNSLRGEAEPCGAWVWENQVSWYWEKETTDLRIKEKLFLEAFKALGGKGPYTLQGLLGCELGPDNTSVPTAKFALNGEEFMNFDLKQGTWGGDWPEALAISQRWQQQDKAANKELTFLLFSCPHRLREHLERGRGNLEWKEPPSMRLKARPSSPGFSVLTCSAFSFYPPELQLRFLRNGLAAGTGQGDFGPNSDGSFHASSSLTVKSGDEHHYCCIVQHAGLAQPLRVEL
T1 sequence (P61769 21-119 limits assumed, chain 2 of 2): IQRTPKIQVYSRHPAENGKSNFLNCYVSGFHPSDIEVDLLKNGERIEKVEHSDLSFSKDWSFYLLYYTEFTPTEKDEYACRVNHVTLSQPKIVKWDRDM

B1: L5 isolate with insertion SEQ ID NO: 445 (other)
chain: EPKSCDKTHTCPPCPAPELLGGPSVFLFPPKPKDTLMISRTPEVTCVVVDVSHEDPEVKFNWYVDGVEVHNAKTKPREEQYNSTYRVVSVLTVLHQDWLNGKEYKCKVSNKALPAPIEKTISKAKGQPREPQVYTLPPSRDELTKNQVSLTCLVKGFYPSDIAVEWESNGGCPLVRADCGGGQPENNYKTTPPVLDSDGSFFLYSKLTVDKSRWQQGNVFSCSVMHEALHNHYTQKSLSLSPGK
B1: the ELISA score in assay [1] came out at 53.2; in assay [2], 0.4.

B2: L5 isolate with insertion SEQ ID NO: 459 (other)
chain: EPKSCDKTHTCPPCPAPELLGGPSVFLFPPKPKDTLMISRTPEVTCVVVDVSHEDPEVKFNWYVDGVEVHNAKTKPREEQYNSTYRVVSVLTVLHQDWLNGKEYKCKVSNKALPAPIEKTISKAKGQPREPQVYTLPPSRDELTKNQVSLTCLVKGFYPSDIAVEWESNGGCPGHEFRCGGGQPENNYKTTPPVLDSDGSFFLYSKLTVDKSRWQQGNVFSCSVMHEALHNHYTQKSLSLSPGK
For the molecule B2, the results for the ELISA score in assay [1] and in assay [2] were 48.2 and 1.8, respectively.

B3: L5 isolate with insertion SEQ ID NO: 464 (other)
chain: EPKSCDKTHTCPPCPAPELLGGPSVFLFPPKPKDTLMISRTPEVTCVVVDVSHEDPEVKFNWYVDGVEVHNAKTKPREEQYNSTYRVVSVLTVLHQDWLNGKEYKCKVSNKALPAPIEKTISKAKGQPREPQVYTLPPSRDELTKNQVSLTCLVKGFYPSDIAVEWESNGGCMMWKVNCGGGQPENNYKTTPPVLDSDGSFFLYSKLTVDKSRWQQGNVFSCSVMHEALHNHYTQKSLSLSPGK
For B3, the ELISA score in assay [1] was 46.2; in assay [2] it was 0.9.

B4: L5 isolate with insertion SEQ ID NO: 463 (other)
chain: EPKSCDKTHTCPPCPAPELLGGPSVFLFPPKPKDTLMISRTPEVTCVVVDVSHEDPEVKFNWYVDGVEVHNAKTKPREEQYNSTYRVVSVLTVLHQDWLNGKEYKCKVSNKALPAPIEKTISKAKGQPREPQVYTLPPSRDELTKNQVSLTCLVKGFYPSDIAVEWESNGGCMHSPHACGGGQPENNYKTTPPVLDSDGSFFLYSKLTVDKSRWQQGNVFSCSVMHEALHNHYTQKSLSLSPGK
Regarding B4, the ELISA score is 46.8 in assay [1] and 3.6 in assay [2].

B5: L5 isolate with insertion SEQ ID NO: 470 (other)
chain: EPKSCDKTHTCPPCPAPELLGGPSVFLFPPKPKDTLMISRTPEVTCVVVDVSHEDPEVKFNWYVDGVEVHNAKTKPREEQYNSTYRVVSVLTVLHQDWLNGKEYKCKVSNKALPAPIEKTISKAKGQPREPQVYTLPPSRDELTKNQVSLTCLVKGFYPSDIAVEWESNGGCEASGQICGGGQPENNYKTTPPVLDSDGSFFLYSKLTVDKSRWQQGNVFSCSVMHEALHNHYTQKSLSLSPGK
For B5, the ELISA score in assay [1] was 42.4; in assay [2], 1.6.

B6: L5 isolate with insertion SEQ ID NO: 449 (other)
chain: EPKSCDKTHTCPPCPAPELLGGPSVFLFPPKPKDTLMISRTPEVTCVVVDVSHEDPEVKFNWYVDGVEVHNAKTKPREEQYNSTYRVVSVLTVLHQDWLNGKEYKCKVSNKALPAPIEKTISKAKGQPREPQVYTLPPSRDELTKNQVSLTCLVKGFYPSDIAVEWESNGGCLQNLYVCGGGQPENNYKTTPPVLDSDGSFFLYSKLTVDKSRWQQGNVFSCSVMHEALHNHYTQKSLSLSPGK
Turning to B6, the ELISA score in assay [1] amounted to 51.6; in assay [2], 0.4.

B7: L5 isolate with insertion SEQ ID NO: 452 (other)
chain: EPKSCDKTHTCPPCPAPELLGGPSVFLFPPKPKDTLMISRTPEVTCVVVDVSHEDPEVKFNWYVDGVEVHNAKTKPREEQYNSTYRVVSVLTVLHQDWLNGKEYKCKVSNKALPAPIEKTISKAKGQPREPQVYTLPPSRDELTKNQVSLTCLVKGFYPSDIAVEWESNGGCWMWAEECGGGQPENNYKTTPPVLDSDGSFFLYSKLTVDKSRWQQGNVFSCSVMHEALHNHYTQKSLSLSPGK
For B7, the figures for the ELISA score in assay [1] and in assay [2] were 50.5 and 1, respectively.

B8: L5 isolate with insertion SEQ ID NO: 461 (other)
chain: EPKSCDKTHTCPPCPAPELLGGPSVFLFPPKPKDTLMISRTPEVTCVVVDVSHEDPEVKFNWYVDGVEVHNAKTKPREEQYNSTYRVVSVLTVLHQDWLNGKEYKCKVSNKALPAPIEKTISKAKGQPREPQVYTLPPSRDELTKNQVSLTCLVKGFYPSDIAVEWESNGGCKWSMTKCGGGQPENNYKTTPPVLDSDGSFFLYSKLTVDKSRWQQGNVFSCSVMHEALHNHYTQKSLSLSPGK
For the molecule B8, the figures for the ELISA score in assay [1] and in assay [2] were 47.2 and 0.9, respectively.

B9: L5 isolate with insertion SEQ ID NO: 447 (other)
chain: EPKSCDKTHTCPPCPAPELLGGPSVFLFPPKPKDTLMISRTPEVTCVVVDVSHEDPEVKFNWYVDGVEVHNAKTKPREEQYNSTYRVVSVLTVLHQDWLNGKEYKCKVSNKALPAPIEKTISKAKGQPREPQVYTLPPSRDELTKNQVSLTCLVKGFYPSDIAVEWESNGGCMFETKWCGGGQPENNYKTTPPVLDSDGSFFLYSKLTVDKSRWQQGNVFSCSVMHEALHNHYTQKSLSLSPGK
For B9, the ELISA score stood at 52.4 in assay [1] and 1.2 in assay [2].

B10: L5 isolate with insertion SEQ ID NO: 451 (other)
chain: EPKSCDKTHTCPPCPAPELLGGPSVFLFPPKPKDTLMISRTPEVTCVVVDVSHEDPEVKFNWYVDGVEVHNAKTKPREEQYNSTYRVVSVLTVLHQDWLNGKEYKCKVSNKALPAPIEKTISKAKGQPREPQVYTLPPSRDELTKNQVSLTCLVKGFYPSDIAVEWESNGGCNLGHMPCGGGQPENNYKTTPPVLDSDGSFFLYSKLTVDKSRWQQGNVFSCSVMHEALHNHYTQKSLSLSPGK
Take B10: the ELISA score came out at 51.1 in assay [1] and 0.4 in assay [2].

B11: L5 isolate with insertion SEQ ID NO: 453 (other)
chain: EPKSCDKTHTCPPCPAPELLGGPSVFLFPPKPKDTLMISRTPEVTCVVVDVSHEDPEVKFNWYVDGVEVHNAKTKPREEQYNSTYRVVSVLTVLHQDWLNGKEYKCKVSNKALPAPIEKTISKAKGQPREPQVYTLPPSRDELTKNQVSLTCLVKGFYPSDIAVEWESNGGCVHNDKLCGGGQPENNYKTTPPVLDSDGSFFLYSKLTVDKSRWQQGNVFSCSVMHEALHNHYTQKSLSLSPGK
On to B11, for which the values for the ELISA score in assay [1] and in assay [2] were 50.3 and 0.4, respectively.

B12: L5 isolate with insertion SEQ ID NO: 475 (other)
chain: EPKSCDKTHTCPPCPAPELLGGPSVFLFPPKPKDTLMISRTPEVTCVVVDVSHEDPEVKFNWYVDGVEVHNAKTKPREEQYNSTYRVVSVLTVLHQDWLNGKEYKCKVSNKALPAPIEKTISKAKGQPREPQVYTLPPSRDELTKNQVSLTCLVKGFYPSDIAVEWESNGGCLGLRQECGGGQPENNYKTTPPVLDSDGSFFLYSKLTVDKSRWQQGNVFSCSVMHEALHNHYTQKSLSLSPGK
As to B12, the values for the ELISA score in assay [1] and in assay [2] were 41.1 and 1.6, respectively.

B13: L5 isolate with insertion SEQ ID NO: 477 (other)
chain: EPKSCDKTHTCPPCPAPELLGGPSVFLFPPKPKDTLMISRTPEVTCVVVDVSHEDPEVKFNWYVDGVEVHNAKTKPREEQYNSTYRVVSVLTVLHQDWLNGKEYKCKVSNKALPAPIEKTISKAKGQPREPQVYTLPPSRDELTKNQVSLTCLVKGFYPSDIAVEWESNGGCQQIKEWCGGGQPENNYKTTPPVLDSDGSFFLYSKLTVDKSRWQQGNVFSCSVMHEALHNHYTQKSLSLSPGK
In the case of B13, the results for the ELISA score in assay [1] and in assay [2] were 38.7 and 1.6, respectively.

B14: L5 isolate with insertion SEQ ID NO: 456 (other)
chain: EPKSCDKTHTCPPCPAPELLGGPSVFLFPPKPKDTLMISRTPEVTCVVVDVSHEDPEVKFNWYVDGVEVHNAKTKPREEQYNSTYRVVSVLTVLHQDWLNGKEYKCKVSNKALPAPIEKTISKAKGQPREPQVYTLPPSRDELTKNQVSLTCLVKGFYPSDIAVEWESNGGCYPQKEICGGGQPENNYKTTPPVLDSDGSFFLYSKLTVDKSRWQQGNVFSCSVMHEALHNHYTQKSLSLSPGK
As to B14, the values for the ELISA score in assay [1] and in assay [2] were 49.8 and 0.6, respectively.

B15: L5 isolate with insertion SEQ ID NO: 446 (other)
chain: EPKSCDKTHTCPPCPAPELLGGPSVFLFPPKPKDTLMISRTPEVTCVVVDVSHEDPEVKFNWYVDGVEVHNAKTKPREEQYNSTYRVVSVLTVLHQDWLNGKEYKCKVSNKALPAPIEKTISKAKGQPREPQVYTLPPSRDELTKNQVSLTCLVKGFYPSDIAVEWESNGGCMHNEEFCGGGQPENNYKTTPPVLDSDGSFFLYSKLTVDKSRWQQGNVFSCSVMHEALHNHYTQKSLSLSPGK
In the case of B15, the ELISA score was 53.2 in assay [1] and 0.4 in assay [2].

B16: L5 isolate with insertion SEQ ID NO: 462 (other)
chain: EPKSCDKTHTCPPCPAPELLGGPSVFLFPPKPKDTLMISRTPEVTCVVVDVSHEDPEVKFNWYVDGVEVHNAKTKPREEQYNSTYRVVSVLTVLHQDWLNGKEYKCKVSNKALPAPIEKTISKAKGQPREPQVYTLPPSRDELTKNQVSLTCLVKGFYPSDIAVEWESNGGCDWHRMKCGGGQPENNYKTTPPVLDSDGSFFLYSKLTVDKSRWQQGNVFSCSVMHEALHNHYTQKSLSLSPGK
For B16, the figures for the ELISA score in assay [1] and in assay [2] were 47 and 1.4, respectively.

B17: L5 isolate with insertion SEQ ID NO: 450 (other)
chain: EPKSCDKTHTCPPCPAPELLGGPSVFLFPPKPKDTLMISRTPEVTCVVVDVSHEDPEVKFNWYVDGVEVHNAKTKPREEQYNSTYRVVSVLTVLHQDWLNGKEYKCKVSNKALPAPIEKTISKAKGQPREPQVYTLPPSRDELTKNQVSLTCLVKGFYPSDIAVEWESNGGCQTSMKNCGGGQPENNYKTTPPVLDSDGSFFLYSKLTVDKSRWQQGNVFSCSVMHEALHNHYTQKSLSLSPGK
B17: the ELISA score in assay [1] amounted to 51.3; in assay [2], 0.2.
